Source: PMC9482650, “Quantitative fragmentomics allow affinity mapping of interactomes” (Nature Communications, 2022)

What was measured:
Experiment in all cases: holdup assay
Set-up in all cases: key: below the threshold = too weak to quantify, mostly under pKd 3.1 to 4
[1] = molecular target: GRIP2_5, Q9C0E4
[2] = molecular target: IL16_4, Q14005
[3] = molecular target: T1, SIPA1L2, Q9P2F8
T1 sequence (Q9P2F8 945-1036, limits assumed, looked up): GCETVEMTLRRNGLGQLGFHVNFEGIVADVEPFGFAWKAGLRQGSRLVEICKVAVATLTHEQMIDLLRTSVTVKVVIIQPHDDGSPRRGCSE

[4] = molecular target: NHERF4_4, Q86UT5
[5] = molecular target: T2, PTPN13_1, Q12923
T2 sequence (Q12923 1088-1188, limits assumed, looked up): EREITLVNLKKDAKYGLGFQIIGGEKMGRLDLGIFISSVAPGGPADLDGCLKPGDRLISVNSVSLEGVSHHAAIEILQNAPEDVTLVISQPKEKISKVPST

[6] = molecular target: TJP1_3, Q07157
[7] = molecular target: T3, RADIL, Q96JH8
T3 sequence (Q96JH8 971-1071, limits assumed, looked up): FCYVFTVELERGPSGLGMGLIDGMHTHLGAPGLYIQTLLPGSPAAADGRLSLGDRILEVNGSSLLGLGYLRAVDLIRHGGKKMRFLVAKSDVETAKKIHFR

[8] = molecular target: ARHGEF12, Q9NZN5-2
[9] = molecular target: MAGI1_2, Q96QZ7
[10] = molecular target: T4, LIN7C, Q9NUP9
T4 sequence (Q9NUP9 88-185, limits assumed, looked up): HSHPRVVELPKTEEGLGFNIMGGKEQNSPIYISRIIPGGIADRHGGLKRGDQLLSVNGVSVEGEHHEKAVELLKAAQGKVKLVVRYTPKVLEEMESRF

[11] = molecular target: T5, ARHGAP21, Q5T5U3
T5 sequence (Q5T5U3 45-169, limits assumed, looked up): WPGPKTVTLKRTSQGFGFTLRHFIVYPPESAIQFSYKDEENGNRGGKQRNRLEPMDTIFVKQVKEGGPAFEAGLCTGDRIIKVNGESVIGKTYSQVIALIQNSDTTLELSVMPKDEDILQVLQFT

[12] = molecular target: T6, MPDZ_10, O75970
T6 sequence (O75970 1624-1722, limits assumed, looked up): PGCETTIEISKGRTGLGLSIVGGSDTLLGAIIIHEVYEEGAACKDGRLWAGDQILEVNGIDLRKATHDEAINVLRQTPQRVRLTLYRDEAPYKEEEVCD

[13] = molecular target: PTPN3, P26045
[14] = molecular target: T7, RAPGEF6, Q8TEU7
T7 sequence (Q8TEU7 525-625, limits assumed, looked up): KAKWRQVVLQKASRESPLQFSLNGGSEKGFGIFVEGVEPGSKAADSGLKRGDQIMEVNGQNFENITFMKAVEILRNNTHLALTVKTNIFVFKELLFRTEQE

[15] = molecular target: HTRA2, O43464
[16] = molecular target: T8, CARD11, Q9BXL7
T8 sequence (Q9BXL7 662-765, limits assumed, looked up): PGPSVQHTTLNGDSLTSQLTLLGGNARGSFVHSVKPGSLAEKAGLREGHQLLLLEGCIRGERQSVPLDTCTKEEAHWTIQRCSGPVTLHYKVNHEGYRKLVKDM

[17] = molecular target: T9, MPP6, Q9NZW5
T9 sequence (Q9NZW5 125-219, limits assumed, looked up): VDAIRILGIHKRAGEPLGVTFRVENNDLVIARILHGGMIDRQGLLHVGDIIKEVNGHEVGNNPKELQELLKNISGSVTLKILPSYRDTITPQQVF

[18] = molecular target: T10, ARHGEF11, O15085
T10 sequence (O15085 42-136, limits assumed, looked up): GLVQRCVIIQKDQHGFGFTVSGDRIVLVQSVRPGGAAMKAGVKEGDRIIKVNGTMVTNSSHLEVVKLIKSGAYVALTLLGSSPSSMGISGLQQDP

[19] = molecular target: GIPC2, Q8TF65
[20] = molecular target: T11, DVL3, Q92997
T11 sequence (Q92997 244-331, limits assumed, looked up): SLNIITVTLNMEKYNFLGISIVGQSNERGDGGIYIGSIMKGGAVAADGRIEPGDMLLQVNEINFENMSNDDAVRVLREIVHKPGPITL

[21] = molecular target: T12, MPDZ_5, O75970
T12 sequence (O75970 695-796, limits assumed, looked up): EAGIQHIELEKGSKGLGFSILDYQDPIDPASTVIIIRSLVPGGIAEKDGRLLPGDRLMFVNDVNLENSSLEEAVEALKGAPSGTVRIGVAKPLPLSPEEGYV

[22] = molecular target: PDLIM1, O00151
[23] = molecular target: Inadl_2, Q8NI35
[24] = molecular target: Inadl_3, Q8NI35
[25] = molecular target: Inadl_6, Q8NI35
[26] = plain residues with an end cap or a label only (N-terminal biotin on a linker: ttds)
[27] = plain residues with an end cap or a label only (N-terminal biotin on a linker: ahx)

Chain of MAGI1_2, Q96QZ7 (Q96QZ7 456-580): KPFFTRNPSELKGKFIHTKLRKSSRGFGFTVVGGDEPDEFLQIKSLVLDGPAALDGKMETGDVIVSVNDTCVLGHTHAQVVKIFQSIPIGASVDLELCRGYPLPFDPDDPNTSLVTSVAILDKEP
Chain of Inadl_2, Q8NI35 (Q8NI35 238-335): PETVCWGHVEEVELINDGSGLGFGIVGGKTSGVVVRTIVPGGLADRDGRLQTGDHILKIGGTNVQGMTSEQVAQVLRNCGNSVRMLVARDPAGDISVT
Chain of Inadl_6, Q8NI35 (Q8NI35 1058-1167): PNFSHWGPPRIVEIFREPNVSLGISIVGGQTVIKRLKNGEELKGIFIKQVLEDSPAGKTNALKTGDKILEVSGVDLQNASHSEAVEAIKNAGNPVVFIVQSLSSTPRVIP
Chain of GIPC2, Q8TF65 (Q8TF65 112-203): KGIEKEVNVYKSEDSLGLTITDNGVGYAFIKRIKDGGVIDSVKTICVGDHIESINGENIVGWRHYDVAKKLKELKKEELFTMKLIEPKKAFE
Chain of NHERF4_4, Q86UT5 (Q86UT5 464-550): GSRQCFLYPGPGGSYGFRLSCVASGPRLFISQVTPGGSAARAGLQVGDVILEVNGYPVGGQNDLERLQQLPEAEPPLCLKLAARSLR
Chain of TJP1_3, Q07157 (Q07157 416-512): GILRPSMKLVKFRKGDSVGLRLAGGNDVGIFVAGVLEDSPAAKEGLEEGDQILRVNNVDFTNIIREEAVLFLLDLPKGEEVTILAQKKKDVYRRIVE
Chain of PTPN3, P26045 (P26045 505-587): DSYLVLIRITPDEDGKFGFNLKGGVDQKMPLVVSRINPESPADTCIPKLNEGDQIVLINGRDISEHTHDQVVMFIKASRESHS
Chain of GRIP2_5, Q9C0E4 (Q9C0E4 544-642): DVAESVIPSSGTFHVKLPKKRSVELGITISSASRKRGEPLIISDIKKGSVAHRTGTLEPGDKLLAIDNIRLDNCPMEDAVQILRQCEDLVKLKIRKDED
Chain of IL16_4, Q14005 (Q14005 1229-1329): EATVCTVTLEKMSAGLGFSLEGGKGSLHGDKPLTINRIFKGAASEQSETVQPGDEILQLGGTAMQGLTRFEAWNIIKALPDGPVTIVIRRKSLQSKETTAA
Chain of Inadl_3, Q8NI35 (Q8NI35 359-469): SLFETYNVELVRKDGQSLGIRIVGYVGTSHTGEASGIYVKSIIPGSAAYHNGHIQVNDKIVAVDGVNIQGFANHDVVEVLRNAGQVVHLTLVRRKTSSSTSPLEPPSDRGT
Chain of HTRA2, O43464 (O43464 355-458): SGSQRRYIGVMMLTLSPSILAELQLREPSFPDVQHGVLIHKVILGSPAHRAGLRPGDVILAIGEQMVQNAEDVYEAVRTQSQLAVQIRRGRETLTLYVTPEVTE
Chain of PDLIM1, O00151 (O00151 1-87): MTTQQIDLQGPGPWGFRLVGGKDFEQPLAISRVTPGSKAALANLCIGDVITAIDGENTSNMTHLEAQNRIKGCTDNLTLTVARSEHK
Chain of ARHGEF12, Q9NZN5-2 (Q9NZN5 other isoform, or with tags, fused parts or gaps): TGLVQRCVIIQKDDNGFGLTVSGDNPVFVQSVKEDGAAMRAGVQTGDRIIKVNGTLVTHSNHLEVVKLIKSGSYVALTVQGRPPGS

What does the source list for EMDRRPATVV [PLCB4, Q15147]?
pKd [1, 26]: below the threshold; pKd [2, 26]: below the threshold; pKd [3, 26]: below the threshold; pKd [4, 26]: below the threshold; pKd [5, 26]: below the threshold; pKd [6, 26]: below the threshold; pKd [7, 26]: 3.99; pKd [8, 26]: 4.53; pKd [9, 26]: below the threshold; pKd [10, 26]: below the threshold; pKd [11, 26]: 3.64; pKd [12, 26]: 3.7; pKd [13, 26]: below the threshold; pKd [14, 26]: below the threshold; pKd [15, 26]: below the threshold; pKd [16, 26]: 3.64; pKd [17, 26]: below the threshold; pKd [18, 26]: 4.6; pKd [19, 26]: 3.48; pKd [20, 26]: below the threshold; pKd [21, 26]: 3.66; pKd [22, 26]: below the threshold

What does the source list for SKPTRRETEV [HPV35-E6, P27228]?
pKd [1, 26]: below the threshold; pKd [2, 26]: below the threshold; pKd [3, 26]: below the threshold; pKd [4, 26]: below the threshold; pKd [5, 26]: below the threshold; pKd [23, 26]: below the threshold; pKd [6, 26]: below the threshold; pKd [7, 26]: below the threshold; pKd [8, 26]: 4.06; pKd [24, 26]: below the threshold; pKd [9, 26]: 5.13; pKd [10, 26]: 3.76; pKd [11, 26]: below the threshold; pKd [12, 26]: below the threshold; pKd [13, 26]: 4.93; pKd [14, 26]: below the threshold; pKd [25, 26]: below the threshold; pKd [15, 26]: below the threshold; pKd [16, 26]: below the threshold; pKd [17, 26]: below the threshold; pKd [18, 26]: 4.11; pKd [19, 26]: below the threshold; pKd [20, 26]: below the threshold; pKd [21, 26]: below the threshold; pKd [22, 26]: below the threshold

For LSDPSVSTVV [GRIN1, Q05586;Q05586-2], which pKd [1, 27] is on record?
Its pKd is “below the threshold”.

And the pKd [2, 27]?
The pKd was “below the threshold”.

What about the pKd [3, 27] of the same binder?
Its pKd is “below the threshold”.

What about the pKd [4, 27] of the same binder?
Its pKd is “below the threshold”.

What about the pKd [5, 27] of the same binder?
Its pKd is “below the threshold”.

What about the pKd [23, 27] of the same binder?
Its pKd is “below the threshold”.

What about the pKd [6, 27] of the same binder?
The pKd was “below the threshold”.

What about the pKd [7, 27] of the same binder?
The pKd was 3.98.

And the pKd [24, 27]?
The pKd was “below the threshold”.

What about the pKd [9, 27] of the same binder?
The pKd was “below the threshold”.

And the pKd [10, 27]?
Its pKd is “below the threshold”.

What about the pKd [11, 27] of the same binder?
Its pKd is “below the threshold”.

And the pKd [12, 27]?
The pKd was “below the threshold”.

What about the pKd [13, 27] of the same binder?
The pKd was “below the threshold”.

And the pKd [14, 27]?
Its pKd is “below the threshold”.

What about the pKd [25, 27] of the same binder?
Its pKd is “below the threshold”.

And the pKd [15, 27]?
The pKd was “below the threshold”.

And the pKd [16, 27]?
The pKd was “below the threshold”.

And the pKd [17, 27]?
Its pKd is “below the threshold”.

What about the pKd [18, 27] of the same binder?
The pKd was 4.01.

And the pKd [19, 27]?
The pKd was “below the threshold”.

And the pKd [20, 27]?
Its pKd is “below the threshold”.

What about the pKd [21, 27] of the same binder?
The pKd was “below the threshold”.

What about the pKd [22, 27] of the same binder?
Its pKd is “below the threshold”.

How did the pKd [1, 27] turn out when PSASCAVTAA [PDLIM4, P50479;P50479-2] was run?
The pKd was “below the threshold”.

What about the pKd [2, 27] of the same binder?
Its pKd is “below the threshold”.

And the pKd [3, 27]?
The pKd was “below the threshold”.

What about the pKd [4, 27] of the same binder?
Its pKd is “below the threshold”.

And the pKd [5, 27]?
Its pKd is “below the threshold”.

What about the pKd [23, 27] of the same binder?
The pKd was “below the threshold”.

What about the pKd [6, 27] of the same binder?
The pKd was “below the threshold”.

And the pKd [7, 27]?
Its pKd is “below the threshold”.

And the pKd [8, 27]?
The pKd was “below the threshold”.

And the pKd [24, 27]?
The pKd was “below the threshold”.

What about the pKd [9, 27] of the same binder?
The pKd was “below the threshold”.

What about the pKd [10, 27] of the same binder?
Its pKd is “below the threshold”.

And the pKd [11, 27]?
Its pKd is “below the threshold”.

And the pKd [13, 27]?
The pKd was “below the threshold”.

What about the pKd [14, 27] of the same binder?
The pKd was “below the threshold”.

And the pKd [25, 27]?
The pKd was “below the threshold”.

And the pKd [15, 27]?
Its pKd is “below the threshold”.

And the pKd [16, 27]?
Its pKd is “below the threshold”.

And the pKd [17, 27]?
Its pKd is “below the threshold”.

What about the pKd [18, 27] of the same binder?
Its pKd is “below the threshold”.

And the pKd [19, 27]?
The pKd was “below the threshold”.

And the pKd [20, 27]?
The pKd was “below the threshold”.

And the pKd [21, 27]?
Its pKd is “below the threshold”.

And the pKd [22, 27]?
The pKd was “below the threshold”.

What does the source list for PRVKPQRSKV [PPP1R13L, Q8WUF5]?
pKd [1, 26]: below the threshold; pKd [2, 26]: below the threshold; pKd [3, 26]: below the threshold; pKd [4, 26]: below the threshold; pKd [5, 26]: below the threshold; pKd [23, 26]: below the threshold; pKd [6, 26]: below the threshold; pKd [7, 26]: below the threshold; pKd [8, 26]: 3.54; pKd [24, 26]: below the threshold; pKd [9, 26]: 3.72; pKd [10, 26]: below the threshold; pKd [11, 26]: below the threshold; pKd [12, 26]: below the threshold; pKd [13, 26]: below the threshold; pKd [14, 26]: below the threshold; pKd [25, 26]: below the threshold; pKd [15, 26]: below the threshold; pKd [16, 26]: below the threshold; pKd [17, 26]: below the threshold; pKd [18, 26]: 3.64; pKd [19, 26]: below the threshold; pKd [20, 26]: below the threshold; pKd [21, 26]: below the threshold; pKd [22, 26]: below the threshold

With NDPAWDETNL [ARHGEF7, Q14155;Q14155-1] as the binder, how does the pKd [1, 26] read?
The pKd was “below the threshold”.

What about the pKd [2, 26] of the same binder?
The pKd was “below the threshold”.

And the pKd [3, 26]?
The pKd was “below the threshold”.

And the pKd [4, 26]?
The pKd was “below the threshold”.

And the pKd [5, 26]?
The pKd was “below the threshold”.

What about the pKd [23, 26] of the same binder?
Its pKd is “below the threshold”.

And the pKd [6, 26]?
The pKd was “below the threshold”.

What about the pKd [7, 26] of the same binder?
Its pKd is “below the threshold”.

And the pKd [8, 26]?
Its pKd is 4.03.

And the pKd [24, 26]?
The pKd was “below the threshold”.

And the pKd [9, 26]?
Its pKd is “below the threshold”.

And the pKd [10, 26]?
The pKd was “below the threshold”.

And the pKd [12, 26]?
Its pKd is “below the threshold”.

What about the pKd [13, 26] of the same binder?
The pKd was 4.44.

And the pKd [14, 26]?
Its pKd is “below the threshold”.

What about the pKd [25, 26] of the same binder?
Its pKd is 4.09.

And the pKd [15, 26]?
Its pKd is “below the threshold”.

And the pKd [16, 26]?
Its pKd is “below the threshold”.

What about the pKd [17, 26] of the same binder?
The pKd was “below the threshold”.

What about the pKd [20, 26] of the same binder?
The pKd was “below the threshold”.

What about the pKd [21, 26] of the same binder?
The pKd was “below the threshold”.

And the pKd [22, 26]?
The pKd was “below the threshold”.
